Paper PMC9131899 (Blood Advances, 2022)

Molecular target: T1, high molecular weight kininogen (HK), purified protein used in ELISA (human, UniProt P01042 19-644)
T1 sequence (looked up): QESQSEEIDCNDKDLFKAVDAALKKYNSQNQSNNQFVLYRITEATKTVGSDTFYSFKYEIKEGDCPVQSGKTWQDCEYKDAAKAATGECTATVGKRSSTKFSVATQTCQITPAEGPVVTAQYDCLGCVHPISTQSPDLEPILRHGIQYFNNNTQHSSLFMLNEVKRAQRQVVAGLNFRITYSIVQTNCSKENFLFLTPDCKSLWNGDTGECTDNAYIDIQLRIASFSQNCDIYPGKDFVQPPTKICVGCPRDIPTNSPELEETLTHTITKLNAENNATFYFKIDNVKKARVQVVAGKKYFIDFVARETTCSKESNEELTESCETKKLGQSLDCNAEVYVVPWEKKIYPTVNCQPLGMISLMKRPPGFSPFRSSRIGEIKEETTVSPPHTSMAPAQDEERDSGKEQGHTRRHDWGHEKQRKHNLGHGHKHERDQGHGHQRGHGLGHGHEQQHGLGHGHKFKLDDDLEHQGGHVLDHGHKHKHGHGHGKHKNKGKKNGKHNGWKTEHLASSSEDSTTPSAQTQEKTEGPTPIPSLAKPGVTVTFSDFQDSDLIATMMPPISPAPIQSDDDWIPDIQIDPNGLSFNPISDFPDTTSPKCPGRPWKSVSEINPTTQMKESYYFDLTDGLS
Experiment: ELISA

B1: prekallikrein (PK), purified protein used in ELISA (natural protein)
chain: not shown
B1: binds.
